Data on 25 sequences can be found in the supplement of paper PMC9233669.

Variants at the floor of the assay were thinned out.

The subject of data set [1] is biotinyl-Val-oxazolone. Nature of the data set: self-aminoacylation, catalytic enhancement (BVO) (fold over background); higher = more active; k-Seq, kA / k0A0; sequences stand for … in GGGAAUGGAUCCACAUCUACGAAUUC…UUCACUGCAGACUUGACGAAGCUG
Put shortly: (§1)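 Each biotinyl-aminoacyl-oxazolone, at 2–1250 μM, was incubated with mutagenized RNA pools (0.43 μM) carrying a 21-nt variable region. The 50 μL reactions contained HEPES/NaCl/KCl/MgCl2/CaCl2 buffer with 5% acetonitrile at pH 6.9–7.0 and ran for 90 minutes at room temperature. After streptavidin capture, RNA was measured by qPCR in triplicate and by Illumina sequencing, and catalytic enhancement was calculated as median kA over the uncatalyzed rate from a pseudo-first-order fit of per-sequence fraction reacted.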

In data set [2] the test system is biotinyl-Met-oxazolone. Nature of the data set: self-aminoacylation, catalytic enhancement (BMO) (fold over background); higher = more active; k-Seq, kA / k0A0; sequences stand for … in GGGAAUGGAUCCACAUCUACGAAUUC…UUCACUGCAGACUUGACGAAGCUG
In short, it runs like this: as §1

For data set [3], the system named is biotinyl-Phe-oxazolone. Description: self-aminoacylation, catalytic enhancement (BFO) (fold over background); higher = more active; k-Seq, kA / k0A0; sequences stand for … in GGGAAUGGAUCCACAUCUACGAAUUC…UUCACUGCAGACUUGACGAAGCUG
Put shortly: as §1

Data set [4] deals with biotinyl-Leu-oxazolone. Description: self-aminoacylation, catalytic enhancement (BLO) (fold over background); higher = more active; k-Seq, kA / k0A0; sequences stand for … in GGGAAUGGAUCCACAUCUACGAAUUC…UUCACUGCAGACUUGACGAAGCUG
In short, it runs like this:
as §1

The test system of data set [5] is biotinyl-Ile-oxazolone. Description: self-aminoacylation, catalytic enhancement (BIO) (fold over background); higher = more active; k-Seq, kA / k0A0; sequences stand for … in GGGAAUGGAUCCACAUCUACGAAUUC…UUCACUGCAGACUUGACGAAGCUG
Put shortly:
as §1

In data set [6] the test system is biotinyl-Trp-oxazolone. Nature of the data set: self-aminoacylation, catalytic enhancement (BWO) (fold over background); higher = more active; k-Seq, kA / k0A0; sequences stand for … in GGGAAUGGAUCCACAUCUACGAAUUC…UUCACUGCAGACUUGACGAAGCUG
In short, it runs like this: as §1

For “AUUUCCCUCGUCAUCGAGUGA [Fam2.1 aminoacylation ribozyme variant]”, the self-aminoacylation in data set [1] stood at 2.6; in data set [2] it was 3.39; in data set [3] it was 21.2; in data set [4], 3.93; in data set [5], 2.5; in data set [6] it was 4.57.
“AAGUUUGCUAAUAGUCCCAAC [Fam3.1 aminoacylation ribozyme variant]”: the self-aminoacylation in data set [1] was 0.643; in data set [2] it was 0.505; in data set [3], 1.04; in data set [4], 0.585; in data set [5], 0.639; in data set [6], 0.629.
On to “AUUCACGUAGGACAUCGGGUG [Fam2.2 aminoacylation ribozyme variant]”, for which the self-aminoacylation came out at 4.37 in data set [1]; 5.02 in data set [2]; 24.5 in data set [3]; 5.61 in data set [4]; 3.6 in data set [5]; 5.55 in data set [6].
Consider “CGACACUUCAAGCAAUCGGGC [Fam1B.1 aminoacylation ribozyme variant]”, for which the self-aminoacylation came to 2.43 in data set [1]; 1.36 in data set [2]; 8.3 in data set [3]; 1.85 in data set [4]; 1.91 in data set [5]; 2.12 in data set [6].
In the case of “AAAUUUGCUAAUAGUAGCAAG [Fam3.1 aminoacylation ribozyme variant]”, the self-aminoacylation was determined as 1.27 in data set [1]; 1.38 in data set [2]; 2.63 in data set [3]; 1.26 in data set [4]; 1.59 in data set [5]; 1.96 in data set [6].
For “AUCCACCUAGGUGAUCGGGUG [Fam2.2 aminoacylation ribozyme variant]”, the self-aminoacylation in data set [1] was determined as 4.45; in data set [2], 6.1; in data set [3], 35.5; in data set [4], 5.68; in data set [5] it was 4.38; in data set [6] it was 5.98.
With “CUUACCCUGGUCAUUGAGUGA [Fam2.1 aminoacylation ribozyme variant]”, the self-aminoacylation in data set [1] amounted to 3.81; in data set [2], 7.17; in data set [3], 22.8; in data set [4] it was 7.58; in data set [5], 3.9; in data set [6], 8.86.
In the case of “AUGACCCUGGUCAUCCAGUGA [Fam2.1 aminoacylation ribozyme variant]”, the self-aminoacylation in data set [1] amounted to 3.16; in data set [2], 6.57; in data set [3] it was 38.6; in data set [4] it was 7.02; in data set [5] it was 3.84; in data set [6], 7.7.
Turning to “AUUCAACUAGGUCACCGGGUG [Fam2.2 aminoacylation ribozyme variant]”, the self-aminoacylation in data set [1] worked out at 4.37; in data set [2], 5.89; in data set [3], 38.8; in data set [4], 6.53; in data set [5] it was 4.11; in data set [6], 5.05.
“AUUCACAUUGGUCAUCGGGUG [Fam2.2 aminoacylation ribozyme variant]”: the self-aminoacylation in data set [1] came out at 5.97; in data set [2], 10.1; in data set [3] it was 82.8; in data set [4], 12.8; in data set [5], 6.31; in data set [6] it was 8.88.
For the sequence “UAGUUUGCUAAUAGUCGCAGG [Fam3.1 aminoacylation ribozyme variant]”, the self-aminoacylation turned out to be 1.34 in data set [1]; 1.2 in data set [2]; 2.23 in data set [3]; 1.31 in data set [4]; 1.72 in data set [5]; 2.22 in data set [6].
Take “AUUACCGUGGUCAUCGAGUGA [Fam2.1 aminoacylation ribozyme variant]”: the self-aminoacylation in data set [1] came out at 3.68; in data set [2] it was 6.27; in data set [3] it was 35.1; in data set [4], 6.4; in data set [5], 3.39; in data set [6], 7.62.
Take “AUUCACCUAGGUUAGCGGGUG [Fam2.2 aminoacylation ribozyme variant]”: the self-aminoacylation in data set [1] is 2.22; in data set [2], 2.98; in data set [3] it was 19.7; in data set [4] it was 2.9; in data set [5], 2.55; in data set [6], 3.43.
As to “AAGUAUGCUAAUAGUCUCAAG [Fam3.1 aminoacylation ribozyme variant]”, the self-aminoacylation in data set [1] came out at 1.31; in data set [2] it was 1.55; in data set [3] it was 8.35; in data set [4], 1.6; in data set [5] it was 1.43; in data set [6], 2.69.
With “CGACACUUCAAGCAUUCGGUC [Fam1B.1 aminoacylation ribozyme variant]”, the self-aminoacylation came out at 1.99 in data set [1]; 1.64 in data set [2]; 3.31 in data set [3]; 1.55 in data set [4]; 1.8 in data set [5]; 1.51 in data set [6].
Turning to “CCCCACUUCAAGCAAUCGAUC [Fam1B.1 aminoacylation ribozyme variant]”, the self-aminoacylation in data set [1] turned out to be 0.93; in data set [2], 0.533; in data set [3], 2.79; in data set [4] it was 0.67; in data set [5], 0.768; in data set [6], 1.27.
As for “AUUACCCUGAUCAUCGAGAGA [Fam2.1 aminoacylation ribozyme variant]”, the self-aminoacylation in data set [1] came out at 0.913; in data set [2], 0.577; in data set [3], 0.905; in data set [4], 0.765; in data set [5] it was 1.02; in data set [6], 0.629.
Consider “AUUCAACUAGGUCAUCUGGUG [Fam2.2 aminoacylation ribozyme variant]”, for which the self-aminoacylation worked out at 1.85 in data set [1]; 2.55 in data set [2]; 17.7 in data set [3]; 3.55 in data set [4]; 1.9 in data set [5]; 2.54 in data set [6].
“AUAGACCUAGGUCAUCGGGUG [Fam2.2 aminoacylation ribozyme variant]”: the self-aminoacylation was determined as 2.65 in data set [1]; 2.93 in data set [2]; 19.5 in data set [3]; 3.85 in data set [4]; 2.59 in data set [5]; 4.2 in data set [6].
Consider “CUAGUGCAAACAAUCGGUCUG [Fam1A.1 aminoacylation ribozyme variant]”, for which the self-aminoacylation in data set [1] stood at 1; in data set [2], 0.962; in data set [3], 2.39; in data set [4], 1.03; in data set [5], 0.998; in data set [6], 0.9.
With “CCACUCUUCAAGCAAUAGGUC [Fam1B.1 aminoacylation ribozyme variant]”, the self-aminoacylation in data set [1] was 0.668; in data set [2] it was 0.558; in data set [3], 0.921; in data set [4] it was 0.669; in data set [5], 0.784; in data set [6], 0.484.
In the case of “CCAAACUUCAAGCAAUCGUUC [Fam1B.1 aminoacylation ribozyme variant]”, the self-aminoacylation stood at 0.93 in data set [1]; 0.66 in data set [2]; 0.813 in data set [3]; 0.621 in data set [4]; 0.743 in data set [5]; 0.803 in data set [6].
Turning to “AAGUUUGCUAAGUGUCGCAAG [Fam3.1 aminoacylation ribozyme variant]”, the self-aminoacylation in data set [1] was found to be 0.897; in data set [2] it was 0.887; in data set [3], 1.9; in data set [4] it was 0.786; in data set [5] it was 0.902; in data set [6], 0.987.
In the case of “AAGUUUGCAAAUAGUCGCAAA [Fam3.1 aminoacylation ribozyme variant]”, the self-aminoacylation in data set [1] was 1.62; in data set [2], 1.52; in data set [3] it was 0.845; in data set [4], 1.79; in data set [5], 1.67; in data set [6], 1.21.
As for “AAGUUUGCCAAUAGGCGCAAG [Fam3.1 aminoacylation ribozyme variant]”, the self-aminoacylation in data set [1] came out at 1.02; in data set [2] it was 0.885; in data set [3], 1.05; in data set [4], 1.15; in data set [5], 1.04; in data set [6], 0.799.
